Experiment: soluble on expression in E. coli; label from the status in PepcDB or PDB records

Sequence	soluble on expression in E. coli
MSLWQPLVLVLLVLGCCFAAPRQRQSTLVLFPGDLRTNLTDRQLAEEYLYRYGYTRVAEMRGESKSLGPALLLLQKQLSLPETGELDSATLKAMRTPRCGVPDLGRFQTFEGDLKWHHHNITYWIQNYSEDLPRAVIDDAFARAFALWSAVTPLTFTRVYSRDADIVIQFGVAEHGDGYPFDGKDGLLAHAFPPGPGIQGDAHFDDDELWSLGKGVVVPTRFGNADGAACHFPFIFEGRSYSACTTDGRSDGLPWCSTTANYDTDDRFGFCPSERLYTRDGNADGKPCQFPFIFQGQSYSACTTDGRSDGYRWCATTANYDRDKLFGFCPTRADSTVMGGNSAGELCVFPFTFLGKEYSTCTSEGRGDGRLWCATTSNFDSDKKWGFCPDQGYSLFLVAAHEFGHALGLDHSSVPEALMYPMYRFTEGPPLHKDDVNGIRHLYGPRPEPEPRPPTTTTPQPTAPPTVCPTGPPTVHPSERPTAGPTGPPSAGPTGPPTAGPSTATTVPLSPVDDACNVNIFDAIAEIGNQLYLFKDGKYWRFSEGRGSRPQGPFLIADKWPALPRKLDSVFEEPLSKKLFFFSGRQVWVYTGASVLGPRRLDKLGLGADVAQVTGALRSGRGKMLLFSGRRLWRFDVKAQMVDPRSASEVDRMFPGVPLDTHDVFQYREKAYFCQDRFYWRVSSRSELNQVDQVGYVTYDILQCPED	soluble
MSSKPLLTLQELAAQNILRNEALAISALQYLPELFLPQLLKQAYDGNHLKVLRAIVSSWPFPRLPLGALKKRTPYLETQLQVVLEEVDKLLIQEVHPREYKLEVLDLRSVGQNYLNVWPGAMDDWLPKTTQTDPCCSKTVMTQPLKVLVDLQLNNRGQSRLFSYLVQWSDRRKGLLQLYCNKLQIWSPSQQNYRKLSQKVNLDYVETLGLHSSCSPSFLLNFAPYLRQMRNLRKLALSNIREEHIISPEKRRCIITRFTLQILKLESLQKLHLDAVCFLEGHLDQLLGSVKTSLDELAVTHCNLSVSEWSHFSEFPCVSQLQQLNLENVRLTGLSPEPLQVLLVKAGPTLVALDLEDCHLEDGQLYAILPALSKCFKLTKFSFYGNQISMLAMKDLLHHTASLIHLRLELYPVPQDSYDYHGTPLMQRMQQHCDELMNLLKTFRNPGRVFFGTDRCDQCCNRYIYNKTIMCNCRRSY	not soluble
MHPRETIRETFVALIKAAKTVAGDNVFNMRDFNLFIETMPAINISTQSETIEDGHDFGLRRRVLTVDVECYATCEDGARFVDQLAWEVEEIFYANPNLNNTVETCRLQNIAFAFGDNGSLALHGAILTFDVTHITNIPCPDEGKATVGVVEPLVGFKPETGMGNKDKYHKIEGDHVRATR	not soluble
MAYVPTLIANNVLNRAFAEKYRISPMKLQKILYFAAAEYQKNTGKSLFSERFETWQYGPVLRSVYSEFRPFSRDFITRFAKDAENQSHMINESADPALQRVLDTVWSATKGHSAVDLSRITHMENSAWDKSFQNEQPFLSSDHIAADDTYRRELGLTTA	not soluble
MGSDKIHHHHHHMRAVTAQAITEAVAKLCKEACYYVTPDMYAAFKKAEETEVSPLGKHILGRIIENADIAKREDMPICQDTGMTVVFVEIGQEVKIEGGYIEDAINAGVAKGYTEGYLRKSVVGEPLFNRANTKDNTPAVIHTRIVPGDKLKLKVCPKGFGSENKSVLKMLVPADGLEGVKKVFLEAVKLAGPNACPPMVIGVGIGGTMEKAAILAKKAAVRSVDSYNEHPDYAQLEKDLLEMACATGVGPQGLGGINTAVKVNIEWYPTHIAGLPVAVNINCHAARHADVTL	not soluble
MKQDMWELRKIQSQGITDNAQYPAGTYIVFTAAAPYIPLFEQHGKDDIALSLVRHEEAWWIVNHSDELCCAVNEQVMEPHHRMRLNDGDTIEWGLSSWCLARTNDESRPDVSFPQLVQSSESVAEYLDLDWFKQQQLNPQNPFDIIPVRETASSYTGHEADSTLHQLYQEYQQALRPSGQEKPLRAKPFPRNEDAVTQDLTSLYDKKGDTDTLQDMVAGAPGIDAILDTLDTTGEGEMHWLAMESMPDILQLLSPELGGKTAHSEILPDLTRREHRIIGIDSHYRITPTQKNGNTAHEKN	not soluble
MGAEGRLYWDEGEGEGPYRLDRFRLLPAEGGFRLLWQGKGELPWPWARVRLRLFGKRLLRAHVEGEAHAAEEGGVLLPPFREALLEVEGLEHHHHHH	not soluble
DRICTNCCAGTKGCKYFSDDGTFVCEGESDPRNPKACTLNCDPRIAYGVCPRSEEKKNDRICTNCCAGTKGCKYFSDDGTFVCEGESDPRNPKACPRNCDPRIAYGICPLA	soluble

Source: the DeepSol protein solubility set
